As a reminder, the Kd is the concentration at which binding is half-saturated. Read a low Kd as higher affinity.

The target of the assay is His-LC3A (human, UniProt Q9H492 1-121). Nature of the assay: ITC. (In ITC the heat of successive injections is recorded.)

GSGTWTLVDEG [hEPG5-LIR1 peptide] came in with a Kd of 20.4 µM. In other words, the double-digit micromolar range.

The values above are taken from paper PMC7935953 (2021).
